From patent US20120058499 come the findings set out here.

The target in data set [1] is T1, Z-Arg-Leu-Arg-Gly-Gly (SEQ ID NO: 1)-amino-luciferin.
T1 chain: RLRGG

The target in data set [2] is hSUMO2-amino-luciferin, P61956.
The target in data set [3] is ubiquitin-7-amino-4-methylcoumarin, P0CG47.
Data set [4] deals with ubiquitin-rhodamine110, P0CG47.
ubiquitin-rhodamine110, P0CG47, sequence (P0CG47 whole entry, looked up): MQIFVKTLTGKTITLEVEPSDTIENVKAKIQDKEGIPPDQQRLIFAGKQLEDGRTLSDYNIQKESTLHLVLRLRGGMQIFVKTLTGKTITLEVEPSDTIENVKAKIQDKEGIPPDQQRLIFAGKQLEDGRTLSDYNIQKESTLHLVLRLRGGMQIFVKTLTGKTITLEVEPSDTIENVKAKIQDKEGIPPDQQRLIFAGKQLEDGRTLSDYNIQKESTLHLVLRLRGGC

hSUMO2-amino-luciferin, P61956, sequence (P61956 1-93): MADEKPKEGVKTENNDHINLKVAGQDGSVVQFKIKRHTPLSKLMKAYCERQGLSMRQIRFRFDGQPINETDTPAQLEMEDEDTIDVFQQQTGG
ubiquitin-7-amino-4-methylcoumarin, P0CG47, sequence (P0CG47 whole entry, looked up): as the sequence (P0CG47 whole entry, looked up) above

B1: UCHL3 (ubiquitin carboxyl-terminal hydrolase isozyme L3) (protein)
chain: MEGQRWLPLEANPEVTNQFLKQLGLHPNWQFVDVYGMDPELLSMVPRPVCAVLLLFPITEKYEVFRTEEEEKIKSQGQDVTSSVYFMKQTISNACGTIGLIHAIANNKDKMHFESGSTLKKFLEESVSMSPEERARYLENYDAIRVTHETSAHEGQTEAPSIDEKVDLHFIALVHVDGHLYELDGRKPFPINHGETSDETLLEDAIEVCKKFMERDPDELRFNAIALSAA
As to B1, in data set [1], the “signal to background (S/B) ratio, bioluminescence, 20 uM substrate, 40 nM UCHL3” value was “a signal to background (S/B) ratio of ~1000 was obtained”. In the data set with Ub(1-76)-aminoluciferin, the “S/B against the S/B for Ub-AMC, UCHL3 0.01 nM” value is listed as ~50-fold greater than the S/B for Ub-AMC; the “S/B against the S/B for Ub-rhodamine110, UCHL3 0.01 nM” value is given as ~200-fold greater than the S/B for Ub-rhodamine110; the “signal to background (S/B) ratio, bioluminescence, 100 nM substrate, 32 pM UCHL3” value is “the same S/B ratio of 1000 was obtained with 100 nM Ub-amino-luciferin and UCHL3 at a concentration of 32 pM”.

B2: USP34 (protein)
chain: VGLTNLGATCYLASTIQQLYMIPEARQAVFTAKYSEDMKHKTTLLELQKMFTYLMESECKAYNPRPFCKTYTMDKQPLNTGEQKDMTEFFTDLITKIEEMSPELKNTVKSLFGGVITNNVVSLDCEHVSQTAEEFYTVRCQVADMKNIYESLDEVTIKDTLEGDNMYTCSHCGKKVRAEKRACFKKLPRILSFNTMRYTFNMVTMMKEKVNTHFSFPLRLDMTPYTEDFLMGKSERKEGFKEVSDHSKDSESYEYDLIGVTVHTGTADGGHYYSFIRDIVNPHAYKNNKWYLFNDAEVKPFDSAQLASECFGGEMTTKTYDSVTDKFMDFSFEKTHSAYMLFYKRM
For the protein B2, the “luminescence signal (S/B), enzyme 200 pM” value in data set [2] is “hSUMO2-amino-luciferin yielded virtually no signal with the DUBs USP34, USP7, and USP8 at concentrations equal to 200 pM”.

B3: AMSH (associated molecule with the SH3 domain of STAM) (protein)
chain: MSDHGDVSLPPEDRVRALSQLGSAVEVNEDIPPRRYFRSGVEIIRMASIYSEEGNIEHAFILYNKYITLFIEKLPKHRDYKSAVIPEKKDTVKKLKEIAFPKAEELKAELLKRYTKEYTEYNEEKKKEAEELARNMAIQQELEKEKQRVAQQKQQQLEQEQFHAFEEMIRNQELEKERLKIVQEFGKVDPGLGGPLVPDLEKPSLDVFPTLTVSSIQPSDCHTTVRPAKPPVVDRSLKPGALSNSESIPTIDGLRHVVVPGRLCPQFLQLASANTARGVETCGILCGKLMRNEFTITHVLIPKQSAGSDYCNTENEEELFLIQDQQGLITLGWIHTHPTQTAFLSSVDLHTHCSYQMMLPESVAIVCSPKFQETGFFKLTDHGLEEISSCRQKGFHPHSKDPPLFCSCSHVTVVDRAVTITDLR
B3: the Signal to Background, luminescence, DUB 10 nM in data set [1] was 1.4 S/B.

B4: JosD2 (protein)
chain: MSQAPGAQPSPPTVYHERQRLELCAVHALNNVLQQQLFSQEAADEICKRLAPDSRLNPHRSLLGTGNYDVNVIMAALQGLGLAAVWWDRRRPLSQLALPQVLGLILNLPSPVSLGLLSLPLRRRHWVALRQVDGVYYNLDSKLRAPEALGDEDGVRAFLAAALAQGLCEVLLVVTKEVEEKGSWLRTD
As for B4, the Signal to Background, luminescence, DUB 10 nM in data set [1] amounted to 2.1 S/B; with Ub(1-76)-aminoluciferin it was 760 S/B. Further, the Signal to Background, fluorescence, DUB 10 nM in data set [3] amounted to 2.1 S/B; in data set [4], 8.2 S/B.

B5: USP8 (protein)
chain: MPAVASVPKELYLSSSLKDLNKKTEVKPEKISTKSYVHSALKIFKTAEECRLDRDEERAYVLYMKYVTVYNLIKKRPDFKQQQDYFHSILGPGNIKKAVEEAERLSESLKLRYEEAEVRKKLEEKDRQEEAQRLQQKRQETGREDGGTLAKGSLENVLDSKDKTQKSNGEKNEKCETKEKGAITAKELYTMMTDKNISLIIMDARRMQDYQDSCILHSLSVPEEAISPGVTASWIEAHLPDDSKDTWKKRGNVEYVVLLDWFSSAKDLQIGTTLRSLKDALFKWESKTVLRNEPLVLEGGYENWLLCYPQYTTNAKVTPPPRRQNEEVSISLDFTYPSLEESIPSKPAAQTPPASIEVDENIELISGQNERMGPLNISTPVEPVAASKSDVSPIIQPVPSIKNVPQIDRTKKPAVKLPEEHRIKSESTNHEQQSPQSGKVIPDRSTKPVVFSPTLMLTDEEKARIHAETALLMEKNKQEKELRERQQEEQKEKLRKEEQEQKAKKKQEAEENEITEKQQKAKEEMEKKESEQAKKEDKETSAKRGKEITGVKRQSKSEHETSDAKKSVEDRGKRCPTPEIQKKSTGDVPHTSVTGDSGSGKPFKIKGQPESGILRTGTFREDTDDTERNKAQREPLTRARSEEMGRIVPGLPSGWAKFLDPITGTFRYYHSPTNTVHMYPPEMAPSSAPPSTPPTHKAKPQIPAERDREPSKLKRSYSSPDITQAIQEEEKRKPTVTPTVNRENKPTCYPKAEISRLSASQIRNLNPVFGGSGPALTGLRNLGNTCYMNSILQCLCNAPHLADYFNRNCYQDDINRSNLLGHKGEVAEEFGIIMKALWTGQYRYISPKDFKITIGKINDQFAGYSQQDSQELLLFLMDGLHEDLNKADNRKRYKEENNDHLDDFKAAEHAWQKHKQLNESIIVALFQGQFKSTVQCLTCHKKSRTFEAFMYLSLPLASTSKCTLQDCLRLFSKEEKLTDNNRFYCSHCRARRDSLKKIEIWKLPPVLLVHLKRFSYDGRWKQKLQTSVDFPLENLDLSQYVIGPKNNLKKYNLFSVSNHYGGLDGGHYTAYCKNAARQRWFKFDDHEVSDISVSSVKSSAAYILFYTSLGPRVTDVAT
Turning to B5, the “luminescence signal (S/B), enzyme 200 pM” value in data set [2] was “hSUMO2-amino-luciferin yielded virtually no signal with the DUBs USP34, USP7, and USP8 at concentrations equal to 200 pM”. Also, in the data set with Ub(1-76)-aminoluciferin, the “S/B against the S/B for both Ub-AMC and Ub-Rhodamine110, enzyme 0.5 nM” value is “increased by ~100-fold relative to the S/B for both Ub-AMC and Ub-Rhodamine110”.

B6: SENP1 (protein)
chain: EFPEITEEMEKEIKNVFRNGNQDEVLSEAFRLTITRKDIQTLNHLNWLNDEIINFYMNMLMERSKEKGLPSVHAFNTFFFTKLKTAGYQAVKRWTKKVDVFSVDILLVPIHLGVHWCLAVVDFRKKNITYYDSMGGINNEACRILLQYLKQESIDKKRKEFDTNGWQLFSKKSQEIPQQMNGSDCGMFACKYADCITKDRPINFTQQHMPYFRKRMVWEILHRKLL
Consider B6, for which the “luminescence signal (S/B), enzyme 200 pM” value in data set [2] is “SENP1, SENP2, and SENP6 (200 pM) on the other hand gave strong signals with hSUMO2-amino-luciferin”.

B7: USP2core (the common catalytic core domain of the two isoforms of USP2, USP2a and USP2b) (protein)
chain: NSKSAQGLAGLRNLGNTCFMNSILQCLSNTRELRDYCLQRLYMRDLHHGSNAHTALVEEFAKLIQTIWTSSPNDVVSPSEFKTQIQRYAPRFVGYNQQDAQEFLRFLLDGLHNEVNRVTLRPKSNPENLDHLPDDEKGRQMWRKYLEREDSRIGDLFVGQLKSSLTCTDCGYCSTVFDPFWDLSLPIAKRGYPEVTLMDCMRLFTKEDVLDGDEKPTCCRCRGRKRCIKKFSIQRFPKILVLHLKRFSESRIRTSKLTTFVNFPLRDLDLREFASENTNHAVYNLYAVSNHSGTTMGGHYTAYCRSPGTGEWHTFNDSSVTPMSSSQVRTSDAYLLFYELASPPSRM
With B7, the “S/B against the S/B for both Ub-AMC and Ub-Rhodamine110, enzyme 0.5 nM” value with Ub(1-76)-aminoluciferin was “increased by ~100-fold relative to the S/B for both Ub-AMC and Ub-Rhodamine110”.

B8: Ataxin3-like (protein)
chain: MDFIFHEKQEGFLCAQHCLNNLLQGEYFSPVELASIAHQLDEEERMRMAEGGVTSEEYLAFLQQPSENMDDTGFFSIQVISNALKFWGLEIIHFNNPEYQKLGIDPINERSFICNYKQHWFTIRKFGKHWFNLNSLLAGPELISDTCLANFLARLQQQAYSVFVVKGDLPDCEADQLLQIISVEEMDTPKLNGKKLVKQKEHRVYKTVLEKVSEESDESGTSDQDEEDFQRALELSRQETNREDEHLRSTIELSMQGSSGNTSQDLPKTSCVTPASEQPKKIKEDYFEKHQQEQKQQQQQSDLPGHSSYLHERPTTSSRAIESDLSDDISEGTVQAAVDTILEIMRKNLKIKGEK
In the case of B8, the Signal to Background, luminescence, DUB 10 nM in data set [1] stood at 1.5 S/B; in the data set with Ub(1-76)-aminoluciferin, 120 S/B. In addition, the Signal to Background, fluorescence, DUB 10 nM amounted to 1.1 S/B in data set [3] and 1.6 S/B in data set [4].

B9: SENP6 (protein)
chain: EEETGENHTIFIGPVEKLIVYPPPPAKGGISVTNEDLHCLNEGEFLNDVIIDFYLKYLVLEKLKKEDADRIHIFSSFFYKRLNQRERRNHETTNLSIQQKRHGRVKTWTRHVDIFEKDFIFVPLNEAAHWFLAVVCFPGLEKPKYEPNPHYHENAVIQKCSTVEDSCISSSASEMESCSQNSSAKPVIKKMLNKKHCIAVIDSNPGQEESDPRYKRNICSVKYSVKKINHTASENEEFNKGESTSQKVADRTKSENGLQNESLSSTHHTDGLSKIRLNYSDESPEAGKMLEDELVDFSEDQDNQDDSSDDGFLADDNCSSEIGQWHLKPTICKQPCILLMDSLRGPSRSNVVKILREYLEVEWEVKKGSKRSFSKDVMKGSNPKVPQQNNFSDCGVYVLQYVESFFENPILSFELPMNLANWFPPPRMRTKREEIRNIILKLQEDQSKEKRKHKDTYSTEAPLGEGTEQYVNSISD
On to B9, for which the “luminescence signal (S/B), enzyme 200 pM” value in data set [1] is “Z-Arg-Leu-Arg-Gly-Gly (SEQ ID NO: 1)-amino-luciferin also gave signals with SENP2 and SENP6 (200 pM)”; in data set [2] it was “SENP1, SENP2, and SENP6 (200 pM) on the other hand gave strong signals with hSUMO2-amino-luciferin”.

B10: SENP2 (sentrin-specific protease 2) (protein)
chain: DLLELTEDMEKEISNALGHGPQDEILSSAFKLRITRGDIQTLKNYHWLNDEVINFYMNLLVERNKKQGYPALHVFSTFFYPKLKSGGYQAVKRWTKGVNLFEQEIILVPIHRKVHWSLVVIDLRKKCLKYLDSMGQKGHRICEILLQYLQDESKTKRNSDLNLLEWTHHSMKPHEIPQQLNGSDCGMFTCKYADYISRDKPITFTQHQMPLFRKKMVWEILHQQLL
On to B10, for which the “luminescence signal (S/B), enzyme 200 pM” value in data set [1] is “Z-Arg-Leu-Arg-Gly-Gly (SEQ ID NO: 1)-amino-luciferin also gave signals with SENP2 and SENP6 (200 pM)”; in data set [2] it was “SENP1, SENP2, and SENP6 (200 pM) on the other hand gave strong signals with hSUMO2-amino-luciferin”.

B11: UCHL5 (protein)
chain: MTGNAGEWCLMESDPGVFTELIKGFGCRGAQVEEIWSLEPENFEKLKPVHGLIFLFKWQPGEEPAGSVVQDSRLDTIFFAKQVINNACATQAIVSVLLNCTHQDVHLGETLSEFKEFSQSFDAAMKGLALSNSDVIRQVHNSFARQQMFEFDTKTSAKEEDAFHFVSYVPVNGRLYELDGLREGPIDLGACNQDDWISAVRPVIEKRIQKYSEGEIRFNLMAIVSDRKMIYEQKIAELQRQLAEEEPMDTDQGNSMLSAIQSEVAKNQMLIEEEVQKLKRYKIENIRRKHNYLPFIMELLKTLAEHQQLIPLVEKAKEKQNAKKAQETK
In turn, B11 registered a Signal to Background, luminescence, DUB 10 nM in data set [1] of 1.4 S/B.
